The values below come from US20190015483A1 (CSL BEHRING RECOMBINANT FACILITY, published 2019).

Usually Kd stands for the equilibrium constant for the complex coming apart. The term koff denotes the rate constant with which the complex falls apart. As a reminder, the kon is the rate constant with which the complex forms.

First the molecules themselves.
T1: recombinant Factor VIII (CSL627, rVIII-SingleChain) (Homo sapiens (Human), UniProt P00451 20-2351)
T1 construct: also called FVIII
T1 sequence: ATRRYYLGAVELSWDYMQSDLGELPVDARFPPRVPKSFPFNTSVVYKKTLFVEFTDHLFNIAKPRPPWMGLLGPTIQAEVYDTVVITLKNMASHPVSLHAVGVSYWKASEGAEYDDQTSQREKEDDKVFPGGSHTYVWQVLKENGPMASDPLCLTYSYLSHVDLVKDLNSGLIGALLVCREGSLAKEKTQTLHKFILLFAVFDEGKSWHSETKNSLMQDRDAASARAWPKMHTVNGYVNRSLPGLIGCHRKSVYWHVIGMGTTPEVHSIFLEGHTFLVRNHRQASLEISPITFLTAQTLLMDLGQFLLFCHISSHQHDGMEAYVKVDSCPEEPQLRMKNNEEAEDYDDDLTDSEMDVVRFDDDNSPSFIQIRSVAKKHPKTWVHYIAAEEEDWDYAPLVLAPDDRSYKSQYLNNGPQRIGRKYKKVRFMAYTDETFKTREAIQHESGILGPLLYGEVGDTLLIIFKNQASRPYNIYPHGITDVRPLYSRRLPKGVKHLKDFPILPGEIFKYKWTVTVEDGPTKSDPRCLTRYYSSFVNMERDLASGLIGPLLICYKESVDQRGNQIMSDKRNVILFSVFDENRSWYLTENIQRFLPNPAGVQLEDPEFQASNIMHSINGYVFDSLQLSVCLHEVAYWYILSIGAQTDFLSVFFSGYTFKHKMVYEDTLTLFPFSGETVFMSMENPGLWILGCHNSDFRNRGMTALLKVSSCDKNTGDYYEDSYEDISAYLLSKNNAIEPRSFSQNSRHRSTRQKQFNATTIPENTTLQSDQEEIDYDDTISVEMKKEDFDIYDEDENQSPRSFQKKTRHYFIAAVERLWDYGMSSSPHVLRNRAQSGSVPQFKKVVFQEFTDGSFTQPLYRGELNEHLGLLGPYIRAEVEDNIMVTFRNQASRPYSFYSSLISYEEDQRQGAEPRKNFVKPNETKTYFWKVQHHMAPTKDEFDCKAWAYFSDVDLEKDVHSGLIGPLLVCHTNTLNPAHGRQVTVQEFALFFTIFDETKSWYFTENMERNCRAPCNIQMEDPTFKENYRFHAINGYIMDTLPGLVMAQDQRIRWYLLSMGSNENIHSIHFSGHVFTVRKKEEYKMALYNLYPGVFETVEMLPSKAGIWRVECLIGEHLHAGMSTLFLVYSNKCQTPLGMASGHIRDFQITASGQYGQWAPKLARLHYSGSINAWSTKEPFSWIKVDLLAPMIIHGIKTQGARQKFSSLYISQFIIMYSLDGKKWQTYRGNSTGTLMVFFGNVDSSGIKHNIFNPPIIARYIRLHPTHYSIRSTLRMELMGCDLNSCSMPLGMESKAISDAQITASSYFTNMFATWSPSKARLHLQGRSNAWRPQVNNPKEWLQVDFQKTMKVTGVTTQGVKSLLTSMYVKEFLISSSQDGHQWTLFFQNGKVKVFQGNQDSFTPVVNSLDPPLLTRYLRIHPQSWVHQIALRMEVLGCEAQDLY

B1: Hu-vWF[764-1270]-8His S764L/S766Y (other)
chain: LLYCRPPMVKLVCPADNLRAEGLECTKTCQNYDLECMSMGCVSGCLCPPGMVRHENRCVALERCPCFHQGKEYAPGETVKIGCNTCVCRDRKWNCTDHVCDATCSTIGMAHYLTFDGLKYLFPGECQYVLVQDYCGSNPGTFRILVGNKGCSHPSVKCKKRVTILVEGGEIELFDGEVNVKRPMKDETHFEVVESGRYIILLLGKALSVVWDRHLSISVVLKQTYQEKVCGLCGNFDGIQNNDLTSSNLQVEEDPVDFGNSWKVSSQCADTRKVPLDSSPATCHNNIMKQTMVDSSCRILTSDVFQDCNKLVDPEPYLDVCIYDTCSCESIGDCACFCDTIAAYAHVCAQHGKVVTWRTATLCPQSCEERNLRENGYECEWRYNSCAPACQVTCQHPEPLACPVQCVEGCHAHCPPGKILDELLQTCVDPEDCPVCEVAGRRFASGKKVTLNPSDPEHCQICHCDVVNLTCEACQEPGGLVVPPTDAPVSPTTLYVEDISEPPLHDFHHHHHHHH
B2: Hu-vWF[764-1270]-8His S764Q/S766Y (other)
chain: QLYCRPPMVKLVCPADNLRAEGLECTKTCQNYDLECMSMGCVSGCLCPPGMVRHENRCVALERCPCFHQGKEYAPGETVKIGCNTCVCRDRKWNCTDHVCDATCSTIGMAHYLTFDGLKYLFPGECQYVLVQDYCGSNPGTFRILVGNKGCSHPSVKCKKRVTILVEGGEIELFDGEVNVKRPMKDETHFEVVESGRYIILLLGKALSVVWDRHLSISVVLKQTYQEKVCGLCGNFDGIQNNDLTSSNLQVEEDPVDFGNSWKVSSQCADTRKVPLDSSPATCHNNIMKQTMVDSSCRILTSDVFQDCNKLVDPEPYLDVCIYDTCSCESIGDCACFCDTIAAYAHVCAQHGKVVTWRTATLCPQSCEERNLRENGYECEWRYNSCAPACQVTCQHPEPLACPVQCVEGCHAHCPPGKILDELLQTCVDPEDCPVCEVAGRRFASGKKVTLNPSDPEHCQICHCDVVNLTCEACQEPGGLVVPPTDAPVSPTTLYVEDISEPPLHDFHHHHHHHH
B3: Hu-vWF[764-1270]-8His S764T/S766Y (other)
chain: TLYCRPPMVKLVCPADNLRAEGLECTKTCQNYDLECMSMGCVSGCLCPPGMVRHENRCVALERCPCFHQGKEYAPGETVKIGCNTCVCRDRKWNCTDHVCDATCSTIGMAHYLTFDGLKYLFPGECQYVLVQDYCGSNPGTFRILVGNKGCSHPSVKCKKRVTILVEGGEIELFDGEVNVKRPMKDETHFEVVESGRYIILLLGKALSVVWDRHLSISVVLKQTYQEKVCGLCGNFDGIQNNDLTSSNLQVEEDPVDFGNSWKVSSQCADTRKVPLDSSPATCHNNIMKQTMVDSSCRILTSDVFQDCNKLVDPEPYLDVCIYDTCSCESIGDCACFCDTIAAYAHVCAQHGKVVTWRTATLCPQSCEERNLRENGYECEWRYNSCAPACQVTCQHPEPLACPVQCVEGCHAHCPPGKILDELLQTCVDPEDCPVCEVAGRRFASGKKVTLNPSDPEHCQICHCDVVNLTCEACQEPGGLVVPPTDAPVSPTTLYVEDISEPPLHDFHHHHHHHH
B4: Hu-vWF[764-1270]-8His S764M/S766Y (other)
chain: MLYCRPPMVKLVCPADNLRAEGLECTKTCQNYDLECMSMGCVSGCLCPPGMVRHENRCVALERCPCFHQGKEYAPGETVKIGCNTCVCRDRKWNCTDHVCDATCSTIGMAHYLTFDGLKYLFPGECQYVLVQDYCGSNPGTFRILVGNKGCSHPSVKCKKRVTILVEGGEIELFDGEVNVKRPMKDETHFEVVESGRYIILLLGKALSVVWDRHLSISVVLKQTYQEKVCGLCGNFDGIQNNDLTSSNLQVEEDPVDFGNSWKVSSQCADTRKVPLDSSPATCHNNIMKQTMVDSSCRILTSDVFQDCNKLVDPEPYLDVCIYDTCSCESIGDCACFCDTIAAYAHVCAQHGKVVTWRTATLCPQSCEERNLRENGYECEWRYNSCAPACQVTCQHPEPLACPVQCVEGCHAHCPPGKILDELLQTCVDPEDCPVCEVAGRRFASGKKVTLNPSDPEHCQICHCDVVNLTCEACQEPGGLVVPPTDAPVSPTTLYVEDISEPPLHDFHHHHHHHH
B5: Hu-vWF[764-1270]-8His S764N/S766Y (other)
chain: NLYCRPPMVKLVCPADNLRAEGLECTKTCQNYDLECMSMGCVSGCLCPPGMVRHENRCVALERCPCFHQGKEYAPGETVKIGCNTCVCRDRKWNCTDHVCDATCSTIGMAHYLTFDGLKYLFPGECQYVLVQDYCGSNPGTFRILVGNKGCSHPSVKCKKRVTILVEGGEIELFDGEVNVKRPMKDETHFEVVESGRYIILLLGKALSVVWDRHLSISVVLKQTYQEKVCGLCGNFDGIQNNDLTSSNLQVEEDPVDFGNSWKVSSQCADTRKVPLDSSPATCHNNIMKQTMVDSSCRILTSDVFQDCNKLVDPEPYLDVCIYDTCSCESIGDCACFCDTIAAYAHVCAQHGKVVTWRTATLCPQSCEERNLRENGYECEWRYNSCAPACQVTCQHPEPLACPVQCVEGCHAHCPPGKILDELLQTCVDPEDCPVCEVAGRRFASGKKVTLNPSDPEHCQICHCDVVNLTCEACQEPGGLVVPPTDAPVSPTTLYVEDISEPPLHDFHHHHHHHH
B6: Hu-vWF[764-1270]-8His S764V/S766Y (other)
chain: VLYCRPPMVKLVCPADNLRAEGLECTKTCQNYDLECMSMGCVSGCLCPPGMVRHENRCVALERCPCFHQGKEYAPGETVKIGCNTCVCRDRKWNCTDHVCDATCSTIGMAHYLTFDGLKYLFPGECQYVLVQDYCGSNPGTFRILVGNKGCSHPSVKCKKRVTILVEGGEIELFDGEVNVKRPMKDETHFEVVESGRYIILLLGKALSVVWDRHLSISVVLKQTYQEKVCGLCGNFDGIQNNDLTSSNLQVEEDPVDFGNSWKVSSQCADTRKVPLDSSPATCHNNIMKQTMVDSSCRILTSDVFQDCNKLVDPEPYLDVCIYDTCSCESIGDCACFCDTIAAYAHVCAQHGKVVTWRTATLCPQSCEERNLRENGYECEWRYNSCAPACQVTCQHPEPLACPVQCVEGCHAHCPPGKILDELLQTCVDPEDCPVCEVAGRRFASGKKVTLNPSDPEHCQICHCDVVNLTCEACQEPGGLVVPPTDAPVSPTTLYVEDISEPPLHDFHHHHHHHH
B7: Hu-vWF[764-1270]-8His S764R/S766Y (other)
chain: RLYCRPPMVKLVCPADNLRAEGLECTKTCQNYDLECMSMGCVSGCLCPPGMVRHENRCVALERCPCFHQGKEYAPGETVKIGCNTCVCRDRKWNCTDHVCDATCSTIGMAHYLTFDGLKYLFPGECQYVLVQDYCGSNPGTFRILVGNKGCSHPSVKCKKRVTILVEGGEIELFDGEVNVKRPMKDETHFEVVESGRYIILLLGKALSVVWDRHLSISVVLKQTYQEKVCGLCGNFDGIQNNDLTSSNLQVEEDPVDFGNSWKVSSQCADTRKVPLDSSPATCHNNIMKQTMVDSSCRILTSDVFQDCNKLVDPEPYLDVCIYDTCSCESIGDCACFCDTIAAYAHVCAQHGKVVTWRTATLCPQSCEERNLRENGYECEWRYNSCAPACQVTCQHPEPLACPVQCVEGCHAHCPPGKILDELLQTCVDPEDCPVCEVAGRRFASGKKVTLNPSDPEHCQICHCDVVNLTCEACQEPGGLVVPPTDAPVSPTTLYVEDISEPPLHDFHHHHHHHH

The target in the experiment is T1, recombinant Factor VIII (CSL627, …). Kind of experiment: SPR, anti-His capture. The protocol: Binding kinetics were investigated by surface plasmon resonance using a Biacore 4000 biosensor at 37° C. Each mutant was captured from cell culture medium to a density of 40-150 RU on a CM-5 sensor chip pre-immobilised with anti-His antibody (14,000 RU). In an initial screening study, FVIII was injected over the captured mutants for 5 minutes at 1 nM and dissociation monitored for 5 minutes.
All sensorgrams were double referenced by subtraction of signals from a reference spot (containing only immobilised anti His antibody) and from a blank injection. Binding kinetics were determined by fitting the double referenced sensorgrams to a 1:1 kinetic model.
On the technique in general: In SPR one partner is held on a chip, and binding of the other changes the refractive index at the surface.
With B1, the Kd worked out at 2.27 pM, the koff came to 7.99e-05 s⁻¹ and the kon worked out at 3.52e+07 M⁻¹ s⁻¹.

Consider B2, for which the Kd was 9.18 pM, the koff came to 0.000109 s⁻¹ and the kon is 1.19e+07 M⁻¹ s⁻¹.

Regarding B3, the Kd turned out to be 5.27 pM, the koff is 0.000136 s⁻¹ and the kon was found to be 2.58e+07 M⁻¹ s⁻¹.

Turning to B4, the Kd was found to be 14.4 pM, the koff is 0.000103 s⁻¹ and the kon turned out to be 7.15e+06 M⁻¹ s⁻¹.

With B5, the Kd is 6.92 pM, the koff was 8.88e-05 s⁻¹ and the kon was found to be 1.28e+07 M⁻¹ s⁻¹.

With B6, the Kd was found to be 2.15 pM, the off-rate constant (koff) came out at 6.41e-05 s⁻¹ and the kon amounted to 2.99e+07 M⁻¹ s⁻¹.

In the case of B7, the Kd turned out to be 2.85 pM, the koff was 9.2e-05 s⁻¹ and the kon is 3.23e+07 M⁻¹ s⁻¹.
